Data: patent US20060183195A1 (published 2006)

Columns and labels:
[1] = biological target: T1, native human CD4 on the cell surface (human, UniProt P01730 26-458); assay: flow cytometry, serial dilutions on SupT1 cells
T1 construct: whole, on cells; also called native CD4; CD4 on SupT1 cells
Procedure: (§1) The avidity and affinity determinations described above were performed with recombinant CD4 (rCD4). To determine the avidity of the human monoclonal antibodies for native CD4 (nCD4). […] Specifically, serial dilutions of antibody were incubated with SupT1 cells for 6 hr on ice, washed and detected any bound antibody with FITC-goat anti-human Fey.
(§2) *Human monoclonal antibodies were incubated in serial dilutions with SupT1 cells for 6 hrs, washed twice and incubated with FITC-conjugated goat anti-human Fey antisera, washed and fixed. The Ka was calculated from the concentration of antibody yielding one-half of the maximum fluorescence as determined from a four-parameter fit.

[2] = biological target: T2, recombinant soluble human CD4 (human, UniProt P01730 26-396, limits assumed); assay: BIAcore, rCD4 coupled to chip, mAb flowed over
T2 construct: Soluble recombinant antigen used in ELISA and on or over the sensor chip; also called rCD4; sCD4
Procedure: (§3) The rate and equilibrium constants presented in Table 19 were determined with a BIAcore, using antigen (rCD4) coupled to the sensor chip and flowing mAb over. These constants were derived from at least three independent experiments using purified mAbs.

[3] = biological target: T2, recombinant soluble human CD4; assay: SPR, sCD4 amine-coupled to sensor chip, antibody flowed over
[4] = biological target: T2, recombinant soluble human CD4; assay: BIAcore, mAb captured on anti-human IgG Fc chip, rCD4 flowed over
Procedure: The rate and equilibrium constants presented in Table 18 were determined with a BIAcore (Pharmacia Biosensor) using goat anti-human IgG (Fc-specific) coupled to the sensor chip and flowing a saturating concentration of mAb over followed by various concentrations of antigen (rCD4). These constants were derived from three experiments using purified mAbs.

[5] = biological target: T1, native human CD4 on the cell surface; assay: ratio of Ka on rCD4 (BIAcore) to Ka on nCD4 (flow cytometry, SupT1)
Procedure: as §3, §1, §2

[6] = biological target: T2, recombinant soluble human CD4; assay: rCD4 column of Table 21 (same values as Table 19: BIAcore, rCD4 on chip)
Procedure: as §3

[7] = biological target: T1, native human CD4 on the cell surface; assay: flow cytometry, serial dilutions on SupT1 cells, half-maximal fluorescence
Procedure: as §1, §2

[8] = biological target: T3, chimpanzee CD4 on peripheral blood lymphocytes (chimpanzee, UniProt P16004 26-458); assay: two-colour flow cytometry on peripheral blood lymphocytes
T3 construct: whole, on cells; also called chimpanzee CD4 cells
T3 sequence (P16004 26-458): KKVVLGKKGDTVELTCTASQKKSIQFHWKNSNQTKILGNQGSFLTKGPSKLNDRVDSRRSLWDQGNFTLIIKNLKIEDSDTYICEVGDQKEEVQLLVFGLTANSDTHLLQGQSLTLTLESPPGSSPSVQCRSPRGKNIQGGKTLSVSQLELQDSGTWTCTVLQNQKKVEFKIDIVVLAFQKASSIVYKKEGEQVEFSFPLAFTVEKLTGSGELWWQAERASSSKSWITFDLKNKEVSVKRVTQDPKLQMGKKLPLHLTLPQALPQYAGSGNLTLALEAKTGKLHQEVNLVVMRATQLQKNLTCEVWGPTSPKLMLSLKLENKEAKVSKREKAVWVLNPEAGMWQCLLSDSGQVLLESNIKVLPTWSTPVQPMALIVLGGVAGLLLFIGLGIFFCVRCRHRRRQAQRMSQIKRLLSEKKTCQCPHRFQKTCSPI
Procedure: (§4) It is further desirable for some purposes that the animal be a non-human primate that expresses CD4 comprising a cross-reactive epitope with human CD4 such that it is recognized by the monoclonal antibody. […] Peripheral blood lymphocytes were isolated from whole blood of chimpanzee, rhesus, and cynomolgus monkeys. […] The stained cells were then analyzed by flow cytometry to determine if each of the human monoclonal antibodies bound to endogenous CD4 on the surface of lymphocytes from each of these three non-human primates.

[9] = biological target: T4, rhesus monkey CD4 on peripheral blood lymphocytes (rhesus monkey, UniProt P16003 26-458); assay: as above
T4 construct: whole, on cells; also called rhesus CD4 cells
T4 sequence (P16003 26-458): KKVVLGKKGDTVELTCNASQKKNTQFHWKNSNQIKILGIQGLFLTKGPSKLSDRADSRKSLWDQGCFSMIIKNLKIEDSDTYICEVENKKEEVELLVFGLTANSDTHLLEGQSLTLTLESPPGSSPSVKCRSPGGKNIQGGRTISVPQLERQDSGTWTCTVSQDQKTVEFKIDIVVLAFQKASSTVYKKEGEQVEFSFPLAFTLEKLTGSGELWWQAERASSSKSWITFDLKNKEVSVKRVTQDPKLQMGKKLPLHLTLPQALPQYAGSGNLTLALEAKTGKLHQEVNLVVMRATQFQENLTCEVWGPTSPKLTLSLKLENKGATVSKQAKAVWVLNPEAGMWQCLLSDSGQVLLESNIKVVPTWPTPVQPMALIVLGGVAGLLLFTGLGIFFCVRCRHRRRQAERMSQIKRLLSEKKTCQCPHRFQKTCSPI
Procedure: as §4

[10] = biological target: T5, cynomolgus monkey CD4 on peripheral blood lymphocytes (cynomolgus monkey, UniProt P79185 26-458); assay: as above
T5 construct: whole, on cells; also called cynomolgus CD4 cells
T5 sequence (P79185 26-458): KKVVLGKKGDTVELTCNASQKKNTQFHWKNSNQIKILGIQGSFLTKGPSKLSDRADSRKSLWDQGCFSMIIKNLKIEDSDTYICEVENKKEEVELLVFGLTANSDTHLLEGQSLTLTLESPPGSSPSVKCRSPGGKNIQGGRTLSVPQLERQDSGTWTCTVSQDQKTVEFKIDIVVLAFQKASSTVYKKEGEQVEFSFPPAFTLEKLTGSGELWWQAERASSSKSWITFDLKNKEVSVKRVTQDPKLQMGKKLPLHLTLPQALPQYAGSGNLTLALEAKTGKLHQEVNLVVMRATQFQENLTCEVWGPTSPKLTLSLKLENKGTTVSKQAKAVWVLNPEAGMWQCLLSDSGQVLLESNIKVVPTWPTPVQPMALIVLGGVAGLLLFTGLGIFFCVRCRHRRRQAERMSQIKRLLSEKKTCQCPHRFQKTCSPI
Procedure: as §4

[11] = biological target: T2, recombinant soluble human CD4; assay: association and dissociation rates of human CD4 antigen for the antibody; method not named

Ka [1] [M⁻¹] | Ka [2] [M⁻¹] | koff [2] [s⁻¹] | kon [2] [M⁻¹ s⁻¹] | Ka [3] [M⁻¹] | koff [3] [s⁻¹] | kon [3] [M⁻¹ s⁻¹] | Ka [4] [M⁻¹] | koff [4] [s⁻¹] | kon [4] [M⁻¹ s⁻¹] | Ratio of Ka (rCD4/nCD4) [5] | Ka [6] [M⁻¹] | Ka [7] [M⁻¹] | binding result [8] | binding result [9] | binding result [10] | Ka [11] [M⁻¹] | Binder
> 1e+09 | 1.1e+10 | 1e-05 | 110000 | 1.1e+10 | 1e-05 | 110000 | 1.4e+08 | 0.00069 | 93000 | 5.9 | 1.1e+10 | 1e+09 |  |  |  |  | 6G5.1 (antibody, human IgG1, V domains shown, Human IgG1 kappa from a hybridoma of an HC2/KCo5 transgenic mouse; VH4-34/JH5; VkL19/Jk2) VH: QVQLQQWGAGLLKPSETLSLTCAVYGGSFSGYYWSWIRQPPGKGLEWIGEINHSGSTNYNPSLKSRVTISVDTSKNQFSLKLSSVTAADTAVYYCARVINWFDPWGQGTLVTVSS VL: DIQMTQSPSSVSASVGDRVTITCRASQDISSWLAWYQHKPGKAPKLLIYAASSLQSGVPSRFSGSGSGTDFTLTISSLQPEDFATYYCQQANSFPYTFGQGTKLEIKR
> 1e+09 | 2.3e+09 | 4.2e-05 | 98000 | 2.3e+09 | 4.2e-05 | 98000 | 7.3e+07 | 0.0034 | 250000 | 1.2 | 2.3e+09 | 2e+09 |  |  |  |  | 4D1.4 (antibody, V domains shown, Human IgG1 kappa from a hybridoma of an HC2/KCo5 transgenic mouse) VH: EVQLVQSGAEVKKPGESLKISCKGSGYSFTGYWIGWVRQMPGKGLEWMGIIYPGDSDTTYSPSFQGQVTISADKSISTAYLQWSSLKASDTAMYYCARDQLGLFDYWGQGTLVTVSS VL: DIQMTQSPSSLSASVGDRVTITCRASQGISSWLAWYQQKPEKAPKSLIYSASSLQSGVPSRFSGSGSGTDFTLTISSLQPEDFATYYCQQYDSYPYTFGQGTKLEIKR
> 1e+09 | 4.5e+09 | 1.6e-05 | 74000 | 4.5e+10 | 1.6e-05 | 74000 | 1.3e+08 | 0.00071 | 94000 | 2.5 | 4.5e+09 | 1e+09 | binds | binds | binds |  | 10C5.6 (antibody, human IgG1, V domains shown, Human IgG1 kappa from a hybridoma of an HC2/KCo5 transgenic mouse) VH: QVQLQQWGAGLLKPSETLSLTCAVYGGSFSGYYWSWIRQPPGKGLEWIGEINHSGSTNYNPSLKSRVTISVDTSKNQFSLKLSSVTAADTAVYYCARVINWFDPWGQGTLVTVSS VL: DIQMTQSPSSVSASVGDRVTITCRASQDISSWLAWYQHKPGKAPKLLIYAASSLQSGVPSRFSGSGSGTDFTLTISSLQPEDFATYYCQQANSFPYTFGQGTKLEIK
 |  |  |  |  |  |  |  |  |  |  |  |  |  |  |  | ~8e+07 | 2C5.1 (antibody, V domains shown) VH: EVQLVQSGAEVKKPGESLKISCKGSGYRFTSYWIGWVRQMPGKGLEWMGIIYPGDSDTRYSPSFQGQVTISADKSISTAYLQWSSLKASDTAMYYCARAPTGDWFDPWGQGTLVTVSS VL: DIQMTQSPSSLSASVGDRVTITCRASQGISSWLAWYQQKPEKAPKSLIYAASSLQSGVPSRFSGSGSGTDFTLTISSLQPEDFATYYCQQYNSYPPTFGGGTKVEIKR
 |  |  |  |  |  |  |  |  |  |  |  |  |  |  |  | ~9e+07 | 4E4.2 (antibody, V domains shown) VH: EVQLVQSGAEVKKPGESLKISCKGSGYRFTSYWIGWVRQMPGKGLEWMGIIYPGDSDTRYSPSFQGQVTISADKSISTAYLQWSSLKASDTAMYYCARAPTGDWFDPWGQGTLVTVSS VL: DIQMTQSPSSLSASVGDRVTITCRASQGISSWLAWYQQKPDKAPKSLIYAASSLQSGVPSKFSGSGSGTDFTLTISSLQPEDFATYYCQQYNSYPPTFGGGTKVEIKR
